The text below walks through data of US20020123614A1.

What all share (settings): remark: other sources report otherwise
The target of experiment [1] is T1, recombinant ICAM-1 Fc chimera, P05362.
T1 chain: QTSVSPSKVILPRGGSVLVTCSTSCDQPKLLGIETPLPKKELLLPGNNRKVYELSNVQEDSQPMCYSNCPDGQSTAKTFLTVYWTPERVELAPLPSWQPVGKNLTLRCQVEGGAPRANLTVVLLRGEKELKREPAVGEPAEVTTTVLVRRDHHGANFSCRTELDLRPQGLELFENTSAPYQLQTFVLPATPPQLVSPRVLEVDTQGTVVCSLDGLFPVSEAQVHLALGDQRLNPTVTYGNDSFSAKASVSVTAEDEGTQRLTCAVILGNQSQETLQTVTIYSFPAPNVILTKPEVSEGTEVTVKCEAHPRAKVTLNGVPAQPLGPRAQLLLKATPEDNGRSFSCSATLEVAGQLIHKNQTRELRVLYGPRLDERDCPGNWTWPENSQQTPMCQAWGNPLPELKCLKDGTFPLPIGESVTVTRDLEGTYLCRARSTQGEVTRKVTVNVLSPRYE
Kind of experiment: BIAcore; Scatchard plots at steady state.

The target is the same in experiment [2]. Kind of experiment: BIAcore; Kon calculated by Koff/KD.
Experiment [3] shares this target. Kind of experiment: BIAcore; dissociation phase, 1:1 model. Background: In SPR one partner is held on a chip, and binding of the other changes the refractive index at the surface.

B1: recombinant soluble wild-type αL I-domain (G128-Y307), E. coli, P20701 153-332 (receptor)
chain: GNVDLVFLFDGSMSLQPDEFQKILDFMKDVMKKLSNTSYQFAAVQFSTSYKTEFDFSDYVKRKDPDALLKHVKHMLLLTNTFGAINYVATEVFREELGARPDATKVLIIITDGEATDSGNIDAAKDIIRYIIGIGKHFQTKESQETLHKFASKPASEFVKILDTFEKLKDLFTELQKKIY
For orientation: Kd means a measure of binding affinity in units of concentration. As usually defined, the kon is the second-order rate constant of association. One may read the koff as the rate constant with which the complex falls apart. Consider B1, for which the Kd in experiment [1] is 1350 µM. Further, the kon in experiment [2] was 2220 M⁻¹ s⁻¹. Also, the koff in experiment [3] stood at 3 s⁻¹.
